Paper PMC9205905, “Core and rod structures of a thermophilic cyanobacterial light-harvesting phycobilisome” (Nature Communications, 2022)

Target: the molecule itself
Test: cryo-EM structure; PC rods dissociated from intact PBSs on the grid by dilution with 10 mM phosphate buffer (phosphate below 0.5 M); single-particle cryo-EM, no symmetry, 4.2 Å

B1: PC monomer (CpcA/CpcB αβ monomer) (complex)
chain 1: not shown
chain 2: MLDAFAKVVAQADARGEFLTNAQFDALSNLVKEGNKRLDAVNRITSNASTIVANAARALFAEQPQLIQPGGNAYTNRRMAACLRDMEIILRYVTYAILAGDSSVLDDRCLNGLRETYQALGTPGSSVAVAIQKMKDAAIAIANDPNGITPGDCSALMSEIAGYFDRAAAAVA
modifications: phycocyanobilin (PCB) at residue 84 (α84) | phycocyanobilin (PCB) at residues 84 and 155 (β84, β155)
Q: For B1, which “stoichiometry N” value is on record?
A: 6
